One molecule from patent US20190231821A1 (published 2019) can be followed below.

In this assay the target is T1, human endogenous retrovirus-E (HERV-E); CT-RCC-1 peptide peptide on HLA-A11 (human).
T1 peptide: ATWLGSKTWK
In words: multimer staining.

B1: HLA-A11 restricted HERV-E TCR (TCR, V domains shown)
Valpha: GIQVEQSPPDLILQEGANSTLRCNFSDSVNNLQWFHQNPWGQLINLFYIPSGTKQNGRLSATTVATERYSLLYISSSQTTDSGVYFCAVRGGADGLTFGKGTHLIIQP
Vbeta: DTEVTQTPKHLVMGMTNKKSLKCEQHMGHRAMYWYKQKAKKPPELMFVYSYEKLSINESVPSRFSPECPNSSLLNLHLHALQPEDSALYLCASSPPNEKLFFGSGTQLSVL
In the case of B1, the binding result is on record as “recognises”.
